Test results taken from patent US20230038638A1, “COMPLEMENT FACTOR I-RELATED COMPOSITIONS AND METHODS” (published 2023).

What was measured:
human C4b (human) [1] = molecular target: T1, human C4b (human) (UniProt P0C0L5)
T1 sequence: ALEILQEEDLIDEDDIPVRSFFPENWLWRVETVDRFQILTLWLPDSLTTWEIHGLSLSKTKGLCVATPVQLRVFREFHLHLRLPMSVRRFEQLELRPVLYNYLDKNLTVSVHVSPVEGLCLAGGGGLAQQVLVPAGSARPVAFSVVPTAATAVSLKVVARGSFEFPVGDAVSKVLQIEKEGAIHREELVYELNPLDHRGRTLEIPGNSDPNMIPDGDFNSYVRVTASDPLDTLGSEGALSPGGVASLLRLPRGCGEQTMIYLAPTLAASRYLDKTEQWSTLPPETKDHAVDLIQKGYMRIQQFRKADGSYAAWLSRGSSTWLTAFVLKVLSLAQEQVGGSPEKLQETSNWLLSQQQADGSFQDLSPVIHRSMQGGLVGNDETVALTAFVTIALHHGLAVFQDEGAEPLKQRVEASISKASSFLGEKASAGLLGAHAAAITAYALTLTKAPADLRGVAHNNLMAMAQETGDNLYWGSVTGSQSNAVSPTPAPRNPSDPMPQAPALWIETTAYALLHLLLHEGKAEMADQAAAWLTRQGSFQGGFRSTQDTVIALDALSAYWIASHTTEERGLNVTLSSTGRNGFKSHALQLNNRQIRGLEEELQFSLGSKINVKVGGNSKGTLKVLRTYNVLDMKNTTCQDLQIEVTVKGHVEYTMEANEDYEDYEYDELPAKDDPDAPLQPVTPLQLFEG

[2] = molecular target: soluble human C3b (human) (UniProt P01024)
human C4b (human) [3] = molecular target: T2, human C4b (human) (UniProt P0C0L4)
T2 sequence: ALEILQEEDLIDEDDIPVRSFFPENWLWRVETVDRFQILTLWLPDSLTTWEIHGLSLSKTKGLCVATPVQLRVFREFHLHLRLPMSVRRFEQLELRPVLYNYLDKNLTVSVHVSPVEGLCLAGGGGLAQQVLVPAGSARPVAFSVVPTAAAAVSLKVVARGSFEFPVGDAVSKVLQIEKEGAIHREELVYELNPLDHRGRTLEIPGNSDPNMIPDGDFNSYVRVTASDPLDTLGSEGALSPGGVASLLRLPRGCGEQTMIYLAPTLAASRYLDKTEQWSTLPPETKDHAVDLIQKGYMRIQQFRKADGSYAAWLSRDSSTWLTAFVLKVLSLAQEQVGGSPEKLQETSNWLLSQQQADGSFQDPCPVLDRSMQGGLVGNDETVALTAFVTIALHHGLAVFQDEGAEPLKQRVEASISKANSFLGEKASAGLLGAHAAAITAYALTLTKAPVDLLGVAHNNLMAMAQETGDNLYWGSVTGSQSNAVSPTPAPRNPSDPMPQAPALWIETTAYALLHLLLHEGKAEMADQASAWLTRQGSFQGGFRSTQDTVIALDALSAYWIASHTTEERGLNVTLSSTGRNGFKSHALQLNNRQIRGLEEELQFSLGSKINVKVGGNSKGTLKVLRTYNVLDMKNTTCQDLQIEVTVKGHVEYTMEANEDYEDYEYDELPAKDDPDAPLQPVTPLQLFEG

human C4b (human) [4] = molecular target: T2, human C4b (human); remark: listed apart in the source

| Substance | C4c EC50 (human C4b (human) [3]) | also measured |
| --- | --- | --- |
| CFI-HSA variant Y408L; E457G; N531G; P535G; K534Q (enzyme) | 21.1 nM | C4b Screen Ref Fold (fold of CFI-HSA wild type) (human C4b (human) [1]): 4.68; iC3b Screen Ref Fold (fold of CFI-HSA wild type) [2]: 1.2 |
| CFI-HSA variant K534M (enzyme) | 154 nM | – |
| CFI-HSA variant Y408L; N531G (enzyme) | 71.9 nM | – |
| CFI-HSA variant Y408L; E457G; F464Y (enzyme) | 110 nM | – |
| CFI-HSA variant T346K; Y408L; N531G (enzyme) | 209 nM | – |
| CFI-HSA variant E457G; N531G; E461Q; R462K; F464Y; GGSSGG (SEQ ID NO: 6); CR1 (ccp1-3) (from UniProt P17927) (enzyme) | – | C4c EC50 (nM) (human C4b (human) [3]): > 1000 nM |
| CFI-HSA variant Y408L; E457G; R462K; F464Y (enzyme) | 156 nM | – |
| CFI-HSA variant E457G; F464Y (enzyme) | 82.3 nM | – |
| CFI-HSA variant Y408L; D425R; E530Y (enzyme) | – | C4c EC50 (nM) (human C4b (human) [3]): 900 nM |
| CFI-HSA variant E457G; N531G; E461Q; R462K; F464Y; E530Y; GGSSGG (SEQ ID NO: 6); CR1(ccp15-17) (from UniProt P17927) (enzyme) | – | C4c EC50 (nM) (human C4b (human) [3]): 86.7 nM |
| CFI-HSA variant E461Q; R462K (enzyme) | 95.9 nM | – |
| CFI-HSA variant K534N (enzyme) | 300 nM | – |
| CFI-HSA variant N531G; D425R; E530Y (enzyme) | – | C4c EC50 (nM) (human C4b (human) [3]): 162 nM |
| CFI-HSA variant Y408L; N531G; R462K; F464Y (enzyme) | 98.2 nM | – |
| CFI-HSA variant Y408L; N531G; E461Q; R462K (enzyme) | 24.5 nM | – |
| CFI-HSA variant P384G (enzyme) | – | C4b Screen Ref Fold (fold vs CFI-HSA wild type) (human C4b (human) [1]): 0.04; C4b Screen Ref Fold (fold of reference) (human C4b (human) [4]): 0.1; iC3b Screen Ref Fold (fold of reference) [2]: 0.01; iC3b Screen Ref Fold (fold vs CFI-HSA wild type) [2]: 0.03 |

| Substance | C4c EC50 (human C4b (human) [3]) | also measured |
| --- | --- | --- |
| CFI-HSA variant Y408L; N531G; D425R; E530Y (enzyme) | – | C4c EC50 (nM) (human C4b (human) [3]): 41.2 nM |
| CFI-HSA variant N531G; E457G; R462K; F464Y (enzyme) | 33 nM | – |
| CFI-HSA variant Y408L; N531G; WT; GGSSGG (SEQ ID NO: 6); CR1(ccp15-17) (enzyme) | 40.9 nM | – |
| CFI-HSA variant N531G; R462K; F464Y (enzyme) | 54.8 nM | – |
| CFI-HSA variant T407G; N531G (enzyme) | 620 nM | – |
| CFI-HSA variant Y408L; E457G; E530Y (enzyme) | – | C4c EC50 (nM) (human C4b (human) [3]): 26.5 nM |
| CFI-HSA variant E457G; E461Q; F464Y (enzyme) | 40.3 nM | – |
| CFI-HSA variant E461Q; R462K; F464Y (enzyme) | 159 nM | – |
| CFI-HSA variant Y408L; E530Y (enzyme) | – | C4c EC50 (nM) (human C4b (human) [3]): > 1000 nM |
| CFI-HSA variant Y408L; N531G; E530Y (enzyme) | – | C4c EC50 (nM) (human C4b (human) [3]): 54 nM |
| CFI-HSA variant E457G; R462K (enzyme) | 52.7 nM | – |
| CFI-HSA variant Y553K (enzyme) | – | C4c EC50 (nM) (human C4b (human) [3]): 198 nM |
| CFI-HSA variant E457G; Y408L (enzyme) | 108 nM | – |
| CFI-HSA variant N531G; E461Q; R462K; F464Y (enzyme) | 24 nM | – |
| CFI-HSA variant N531G; E461Q; F464Y (enzyme) | 28.8 nM | – |
| CFI-HSA variant Y408L; E457G; N531G; WT; GGSSGG (SEQ ID NO: 6); CR1(ccp15-17) (enzyme) | 113 nM | – |
